How the values were obtained:
Experiment in all cases: far-Western, overlay or dot blot
[1] = biological target: p150^Glued subunit of dynactin (endogenous, band in total extracts) (UniProt Q14203)
[2] = biological target: zw10 (endogenous, ~90-kD band) (UniProt O43264)
[3] = biological target: recombinant IC-2C T89D mutant
[4] = biological target: recombinant IC-2C T89E mutant

Chain of UniProt O43264 (O43264 whole entry): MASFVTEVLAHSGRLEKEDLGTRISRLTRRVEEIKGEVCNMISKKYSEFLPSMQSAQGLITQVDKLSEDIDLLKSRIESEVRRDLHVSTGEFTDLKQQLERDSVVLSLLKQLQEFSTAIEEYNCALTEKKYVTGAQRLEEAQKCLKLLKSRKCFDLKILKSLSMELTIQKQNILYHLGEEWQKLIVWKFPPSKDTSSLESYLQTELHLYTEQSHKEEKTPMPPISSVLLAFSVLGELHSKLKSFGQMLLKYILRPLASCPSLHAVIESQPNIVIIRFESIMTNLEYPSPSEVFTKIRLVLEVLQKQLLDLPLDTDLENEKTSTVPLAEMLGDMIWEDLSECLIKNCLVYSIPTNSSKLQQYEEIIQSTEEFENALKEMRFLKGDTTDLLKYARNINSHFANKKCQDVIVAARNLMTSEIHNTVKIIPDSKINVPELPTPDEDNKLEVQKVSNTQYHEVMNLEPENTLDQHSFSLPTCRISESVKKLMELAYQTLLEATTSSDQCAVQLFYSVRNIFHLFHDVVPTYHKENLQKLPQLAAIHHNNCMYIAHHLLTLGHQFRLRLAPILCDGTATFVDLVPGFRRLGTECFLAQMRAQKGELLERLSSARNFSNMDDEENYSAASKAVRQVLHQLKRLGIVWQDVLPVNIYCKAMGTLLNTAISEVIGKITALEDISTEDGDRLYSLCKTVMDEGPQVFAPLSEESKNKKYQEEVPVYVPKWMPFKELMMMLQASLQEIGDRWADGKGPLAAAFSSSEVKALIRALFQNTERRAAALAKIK
Chain of UniProt Q14203 (Q14203 whole entry): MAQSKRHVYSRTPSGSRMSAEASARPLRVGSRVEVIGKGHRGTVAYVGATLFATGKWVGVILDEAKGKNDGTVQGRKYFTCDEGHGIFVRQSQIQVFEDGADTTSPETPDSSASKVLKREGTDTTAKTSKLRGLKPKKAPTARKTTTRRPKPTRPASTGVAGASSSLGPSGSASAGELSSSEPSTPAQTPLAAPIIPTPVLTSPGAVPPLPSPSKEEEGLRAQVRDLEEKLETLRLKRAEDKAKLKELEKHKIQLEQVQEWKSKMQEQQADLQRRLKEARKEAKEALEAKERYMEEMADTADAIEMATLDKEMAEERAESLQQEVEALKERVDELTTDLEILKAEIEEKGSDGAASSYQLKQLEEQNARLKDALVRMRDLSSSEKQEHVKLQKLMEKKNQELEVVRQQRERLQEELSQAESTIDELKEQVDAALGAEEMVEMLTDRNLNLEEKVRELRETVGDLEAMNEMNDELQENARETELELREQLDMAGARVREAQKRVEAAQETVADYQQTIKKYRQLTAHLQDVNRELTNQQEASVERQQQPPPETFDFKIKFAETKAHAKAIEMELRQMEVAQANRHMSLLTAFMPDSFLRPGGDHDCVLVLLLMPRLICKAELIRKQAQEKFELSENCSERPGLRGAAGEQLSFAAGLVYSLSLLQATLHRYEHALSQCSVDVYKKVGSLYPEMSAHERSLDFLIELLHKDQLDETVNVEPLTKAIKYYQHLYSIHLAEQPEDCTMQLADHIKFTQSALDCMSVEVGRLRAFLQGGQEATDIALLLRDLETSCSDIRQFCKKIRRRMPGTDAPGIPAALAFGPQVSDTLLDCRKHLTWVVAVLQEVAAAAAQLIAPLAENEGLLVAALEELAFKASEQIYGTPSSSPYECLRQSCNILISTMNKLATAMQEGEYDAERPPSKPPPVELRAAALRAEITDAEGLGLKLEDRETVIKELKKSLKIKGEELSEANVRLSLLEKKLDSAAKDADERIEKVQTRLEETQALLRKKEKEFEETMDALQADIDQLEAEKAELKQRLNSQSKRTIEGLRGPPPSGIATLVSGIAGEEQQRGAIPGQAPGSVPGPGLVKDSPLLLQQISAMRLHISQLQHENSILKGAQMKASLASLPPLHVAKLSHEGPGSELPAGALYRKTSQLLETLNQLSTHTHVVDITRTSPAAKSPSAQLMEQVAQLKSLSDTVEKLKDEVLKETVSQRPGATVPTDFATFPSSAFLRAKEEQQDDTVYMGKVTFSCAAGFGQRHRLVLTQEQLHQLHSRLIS

Row | overlay signal as percent of the endogenous IC band [1] [%] | overlay signal as percent of the endogenous IC band [2] [%] | percent increase in binding against dephospho-ICs [2] [%] | fold reduction in binding against the wild type [3] [fold] | fold reduction in binding against the wild type [4] [fold] | Substance
1 | 55.4 | 96.2 | 100 |  |  | recombinant IC-2C fragment (residues 1-284) phosphorylated in vitro (phospho-ICs) (domain or fragment)
2 | 83 | 31.1 |  |  |  | recombinant IC-2C fragment spanning residues 1-284 (dephosphorylated ICs) (domain or fragment)
3 |  |  |  | 4 | 4 | recombinant p150^Glued fragment spanning residues 1-811 (from UniProt P28023 1-811) (domain or fragment)
